Experimental data from patent US20100119511A1 (Biogen, published 2010).
Values joined by “and” are separate entries in the source; they are usually repeats but may differ in a detail not shown here. Equal entries are not always repeated.

Assays:
[1] = biological target: Soluble human LTBR (shuLTBR) (human, UniProt P36941 31-227, limits assumed); assay: SEC / light scattering
Procedure: Soluble human LTBR (shuLTBR) was prepared by limited proteolytic digestion of human LTBR-Ig and purified by chromatography on protein A Sepharose and Fractogel TMAE. […] Controls with each protein were also included. The samples were analyzed by SEC using a […] column (Phenomenex) in PBS with a Waters Alliance HPLC instrument.

D1-D2 Her2-Fc = biological target: T1, D1-D2 Her2-Fc; assay: ELISA, HER2 domain-Fc captured on anti-huFc, detection HRP-anti-fab
T1 construct: also called MR067; ErbB2-Fc Domains 1-2; not shown: huIgG1-Fc part
T1 chain: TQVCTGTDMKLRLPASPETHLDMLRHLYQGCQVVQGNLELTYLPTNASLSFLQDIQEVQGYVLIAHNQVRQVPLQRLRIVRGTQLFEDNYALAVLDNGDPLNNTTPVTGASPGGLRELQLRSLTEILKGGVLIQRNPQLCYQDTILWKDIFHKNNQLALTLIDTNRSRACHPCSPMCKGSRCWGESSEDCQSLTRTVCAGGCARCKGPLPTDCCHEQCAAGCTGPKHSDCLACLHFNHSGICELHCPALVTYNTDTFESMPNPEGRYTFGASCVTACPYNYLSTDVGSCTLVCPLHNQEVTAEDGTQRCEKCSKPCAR
Procedure: (§1) Nunc Maxisorp ELISA plates were coated with 5 ug/ml rabbit pAbs anti-human Fc gamma in PBS overnight at 4 degrees. Plates were washed one time with PBST (PBS, 0.05% tween 20) and blocked with 1% BSA in PBS for one hour at room temperature. Plates were washed one time with PBST and incubated with 1 ug/ml HER2-Fc fusion protein for one hour. Plates were washed three times with PBST and dilutions of Fab (four 5-fold serial dilutions, starting at 1 ug/ml) in block were added and incubated for ninety minutes. Plates were washed three times with PBST and incubated with 1:2,000 HRP-labelled goat anti-human kappa (Southern Biotech cat#2060-05) and HRP-labelled goat anti-human lambda (Southern Biotech cat#2070-05) in block for one hour at room temperature. Plates were washed three times with PBST, developed with TMB solution for 5 minutes, and stopped with equal volume 1 NH₂SO₄. Absorbance values were read at 450 nm.

D1 Her2-Fc = biological target: T2, D1 Her2-Fc; assay: as above
T2 construct: also called MR066; ErbB2-Fc Domain 1; not shown: huIgG1-Fc part
T2 chain: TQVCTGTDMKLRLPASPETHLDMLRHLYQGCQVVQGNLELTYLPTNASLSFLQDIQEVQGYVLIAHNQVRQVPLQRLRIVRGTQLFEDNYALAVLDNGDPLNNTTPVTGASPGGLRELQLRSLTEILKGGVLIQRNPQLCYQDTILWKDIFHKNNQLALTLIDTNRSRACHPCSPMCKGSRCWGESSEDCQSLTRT
Procedure: as §1

Chain of Soluble human LTBR (shuLTBR) (P36941 31-227 limits assumed): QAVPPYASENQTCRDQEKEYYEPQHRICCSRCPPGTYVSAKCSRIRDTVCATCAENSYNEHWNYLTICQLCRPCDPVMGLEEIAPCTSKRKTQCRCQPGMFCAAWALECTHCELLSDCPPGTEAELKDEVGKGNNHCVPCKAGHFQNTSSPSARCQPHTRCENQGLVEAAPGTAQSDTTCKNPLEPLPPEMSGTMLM

B1: 71F10 Fab-hLIGHT fusion with the (G4S)4 linker (BIIB71F10-132) (other)
heavy: EVQLLESGGGLVQPGGSLRLSCAASGFTFSSYGMVWVRQAPGKGLEWVSSISSSGGLTWYADSVKGRFTISRDNSKNTLYLQMNSLRAEDTAVYYCASPPGIAVARDYWGQGTLVTVSSASTKGPSVFPLAPSSKSTSGGTAALGCLVKDYFPEPVTVSWNSGALTSGVHTFPAVLQSSGLYSLSSVVTVPSSSLGTQTYICNVNHKPSNTKVDKKVEPKSCDKGGGGSGGGGSGGGGSGGGGSNPAAHLTGANSSLTGSGGPLLWETQLGLAFLRGLSYHDGALVVTKAGYYYIYSKVQLGGVGCPLGLASTITHGLYKRTPRYPEELELLVSQQSPCGRATSSSRVWWDSSFLGGVVHLEAGEEVVVRVLDERLVRLRDGTRSYFGAFMV
light: DIQMTQSPSSLSASVGDRVTITCRASQGISNYLAWYQQKPGKVPKLLIYAASTLQSGVPSRFSGSGSGTDFTLTISSLQPEDVATYYCQKYNSALLTFGGGTKVEIKRTVAAPSVFIFPPSDEQLKSGTASVVCLLNNFYPREAKVQWKVDNALQSGNSQESVTEQDSKDSTYSLSSTLTLSKADYEKHKVYACEVTHQGLSSPVTKSFNRGEC
notes: Fab heavy chain fused to human LIGHT extracellular portion; assembles as a trimer; also called 71F10 Fab-(G4S)4-LIGHT
For B1, the “stoichiometry (shuLTBR per Fab-Light trimer)” value [1] was 2 shuLTBR per trimer and 3 shuLTBR per trimer.

B2: BIIB65H09 Fab (Fab, V domains shown)
VH: EVQLLESGGGLVQPGGSLRLSCAASGFTFSWYSMWWVRQAPGKGLEWVSSIVSSGGQTRYADSVKGRFTISRDNSKNTLYLQMNSLRAEDTAVYYCARVKGYYYYIDVWGKGTTVTVSS
VL: DIQMTQSPGTLSLSPGERATLSCRASQSVDSSYLSWYQQKPGQAPRLLIYGASTRATGIPARFSGSGSGTDFTLTVSRLEPEDFAVYYCQQHGYSSRTFGQGTKVEIK
notes: Soluble human Fab from a phagemid Fab library
B2: no binding (tested: 1 ug/ml (from paragraph 380, not on the sheet)) (D1-D2 Her2-Fc); no binding (tested: 1 ug/ml (from paragraph 380, not on the sheet)) (D1 Her2-Fc).

B3: BIIB66A12 Fab (Fab, V domains shown)
VH: EVQLLESGGGLVQPGGSLRLSCAASGFTFSMYSMQWVRQAPGKGLEWVSVIGSSGGQTGYADSVKGRFTISRDNSKNTLYLQMNSLRAEDTAVYYCARVRDYYGSGSYYLDPWGQGTLVTVSS
VL: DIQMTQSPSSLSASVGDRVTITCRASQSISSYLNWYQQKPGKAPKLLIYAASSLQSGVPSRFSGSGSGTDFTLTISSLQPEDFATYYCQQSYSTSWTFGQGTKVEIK
notes: as for B2
B3: no binding (tested: 1 ug/ml (from paragraph 380, not on the sheet)) (D1-D2 Her2-Fc); no binding (tested: 1 ug/ml (from paragraph 380, not on the sheet)) (D1 Her2-Fc).

B4: BIIB66C01 Fab (Fab, V domains shown)
VH: EVQLLESGGGLVQPGGSLRLSCAASGFTFSWYSMSWVRQAPGKGLEWVSSISSSGGPTHYADSVKGRFTISRDNSKNTLYLQMNSLRAEDTAVYYCARDSSYSGTSWGQGTLVTVSS
VL: QYELTQPPSVSGTPGQRVTISCSGSSSNIGSEYVYWFQQLPGTAPRLLIYRNDQRPSGVPDRFSGSKSGTSASLAISGLRSEDETDYYCTTWDDSLSGPVFGGGTKLTVL
notes: as for B2
B4: no binding (tested: 1 ug/ml (from paragraph 380, not on the sheet)) (D1-D2 Her2-Fc); no binding (tested: 1 ug/ml (from paragraph 380, not on the sheet)) (D1 Her2-Fc).

B5: BIIB65B03 Fab (Fab, V domains shown)
VH: EVQLLESGGGLVQPGGSLRLSCAASGFTFSWYRMNWVRQAPGKGLEWVSSIYSSGGPTNYADSVKGRFTISRDNSQNTLYLQMNSLRAEDTAVYYCTREKPDYYDSSGYLDYWGQGTLVTVSS
VL: DIQMTQSPGTLSLSPGERSTLSCRASQSVSSSYLAWYQQKPGQAPRLLIYGASSRATGIPDRFSGSGSGTDFTLTISRLEPEDFGVYYCHQYGRPPVFGPGTKVDIK
notes: as for B2
B5: no binding (tested: 1 ug/ml (from paragraph 380, not on the sheet)) (D1-D2 Her2-Fc); no binding (tested: 1 ug/ml (from paragraph 380, not on the sheet)) (D1 Her2-Fc).

B6: BIIB65C10 Fab (Fab, V domains shown)
VH: EVQLLESGGGLVQPGGSLRLSCAASGFTFSYYPMMWVRQAPGKGLEWVSSIWPSGGFTKYADSVKGRFTISRDNSKNTLYLQMNSLRAEDTATYYCARVSSSSWYGYLYWGQGTLVTVSS
VL: not shown
notes: as for B2
B6: no binding (tested: 1 ug/ml (from paragraph 380, not on the sheet)) (D1 Her2-Fc).

B7: BIIB71F10 Fab (Fab, V domains shown)
VH: EVQLLESGGGLVQPGGSLRLSCAASGFTFSSYGMVWVRQAPGKGLEWVSSISSSGGLTWYADSVKGRFTISRDNSKNTLYLQMNSLRAEDTAVYYCASPPGIAVARDYWGQGTLVTVSS
VL: DIQMTQSPSSLSASVGDRVTITCRASQGISNYLAWYQQKPGKVPKLLIYAASTLQSGVPSRFSGSGSGTDFTLTISSLQPEDVATYYCQKYNSALLTFGGGTKVEIK
notes: Soluble human Fab; also called Fab 71F10
B7: no binding (tested: 1 ug/ml (from paragraph 380, not on the sheet)) (D1 Her2-Fc).
